According to patent US8003342:

Molecular target: rat brain farnesyl:protein transferase (rat) (UniProt Q04631)
Test: cell-based or functional assay

Substance	fold decline of affinity [fold]	concentration giving 50% inhibition [µM]	fold decrease of affinity against CVIM, from the concentration required for 50% inhibition [fold]
CVIM with glutamic acid at the A2 position (peptide)	> 50	–	–
CVIM with glutamic acid at the X position (peptide)	–	> 40	–
CVIM with glycine at the X position (peptide)	–	> 40	–
CVIM with lysine at the A2 position (peptide)	> 50	–	> 30
CVIM with lysine at the X position (peptide)	–	> 40	> 30
